From patent US20170253645A1 (published 2017)
Several values for one entry are separate records, joined by “and”; a condition that tells them apart may be missing. Identical values can stand only once.

Columns and labels:
HMGB1 = target: T1, HMGB1 (UniProt P09429 1-215, limits assumed, biotinylated in the RAGE assay (sites not given)); assay: Octet BLI
T1 construct: also called biotinylated HMGB1
T1 sequence (looked up): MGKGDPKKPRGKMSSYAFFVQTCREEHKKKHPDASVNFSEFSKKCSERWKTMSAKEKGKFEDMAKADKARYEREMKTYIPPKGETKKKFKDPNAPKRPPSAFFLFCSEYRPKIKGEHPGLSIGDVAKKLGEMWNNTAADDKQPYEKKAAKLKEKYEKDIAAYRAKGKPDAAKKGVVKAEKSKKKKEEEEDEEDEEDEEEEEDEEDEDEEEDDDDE
Source text: We measured association and disassociation rates using the Octet (FIG. 26C).

TNF-α [1] = target: T2, TNF-α (UniProt P01375 77-233, biotinylated (sites not given)); assay: Octet BLI, biotinylated TNF-α on streptavidin tips, A6+Fc at 370 nM
T2 construct: Bought protein; also called biotintylated TNF-α soluble protein
T2 sequence (P01375 77-233 limits assumed): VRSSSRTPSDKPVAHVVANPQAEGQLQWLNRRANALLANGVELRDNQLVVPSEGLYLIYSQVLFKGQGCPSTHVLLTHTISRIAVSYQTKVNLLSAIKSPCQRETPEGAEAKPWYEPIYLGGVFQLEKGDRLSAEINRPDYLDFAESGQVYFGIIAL
Method: (§1) The target protein was biotintylated TNF-α soluble protein (R&D Systems) and is at a concentration of 0.25 ug/ml for loading onto the streptavidin sensor tips. […] The Octet was run using the manufacturers protocol for Basic Kinetic Assay.

TNF-α [2] = target: T2, TNF-α; assay: Octet BLI, biotinylated TNF-α on streptavidin tips, A6 at 290 nM
Method: as §1

B1: P2F3 anti-HMGB1 (designed binder)
chain: NVSPPRRARVTDATETTITIRWGVPHSFQVDAVPANGQTPIQRTIKRGVRSYTITGLQPGTDYKIYLYTLNDNARSSPVVIDAST
notes: soluble 6xHis-tagged protein in Octet; not shown: C-terminal tags from the phagemid incl; 6xHis (soluble form)
Kd (HMGB1): 277 nM
kon (HMGB1): 97900 M⁻¹ s⁻¹

B2: R41A6 Fc fusion protein (A6+Fc) (Fc fusion)
chain: NVSPPRRARVTDATETTITISWEHSEDDCYSYIYYFQVDAVPANGQTPIQRTISGYETYYTITGLQPGTDYKIYLYTLNSAGFCPPYSKPVVIDAST
notes: Expressed in E. coli BL-21(DE3) from pET-20b with pelB signal; it calls A6 alone monomeric; also called pET-20b+TNF A6+Fc #39; 14FN3-Fc fusion; not shown: C-terminal hexahistidine tag of pET-20b
Kd (TNF-α [1]): 24.8 nM and 14.9 nM and 11.7 nM
koff (TNF-α [1]): 0.000226 s⁻¹ and 0.00022 s⁻¹ and 0.000229 s⁻¹
kon (TNF-α [1]): 9120 M⁻¹ s⁻¹ and 14900 M⁻¹ s⁻¹ and 19500 M⁻¹ s⁻¹

B3: TNF-α binder R41A6 (designed binder)
chain: NVSPPRRARVTDATETTITISWEHSEDDCYSYIYYFQVDAVPANGQTPIQRTISGYETYYTITGLQPGTDYKIYLYTLNSAGFCPPYSKPVVIDAST
notes: 14FN3 scaffold variant from the tyrosine WTM library; Octet); The NcoI primer adds ATGGAA before the NVSPP start in the pET-20b construct; also called TNF A6; not shown: C-terminal hexahistidine tag from pET-20b (Octet), or c-myc + 6xHis tags from the phagemid (soluble ELISA)
koff (TNF-α [2]): 0.000438 s⁻¹ and 0.000267 s⁻¹
